From the Human Domainome abundance scans (Beltran et al. 2025)
± gives the uncertainty stated by the source.

B1: Calcium-binding protein 2, residues 155 to 219; numbered along this chain, Q9NPB3 (parent)
chain: RELRDAFREFDTNGDGRISVGELRAALKALLGERLSQREVDEILQDVDLNGDGLVDFEEFVRMMS

Variants of: B1
Test: abundance fitness (aPCA) (normalised: wild type 0, dead -1); higher = more abundant; growth selection in yeast, the domain comes from the species named
Settings: Homo sapiens

Row | Variant | abundance fitness
1 | RELRDAFREFDTNGDGRVSVGELRAALKALLGERLSQREVDEILQDVDLNGDGLVDFEEFVRMMS [I18V] | -0.045 ± 0.13
2 | RELRDAFREFDTNGDGRNSVGELRAALKALLGERLSQREVDEILQDVDLNGDGLVDFEEFVRMMS [I18N] | -1.01 ± 0.33
3 | RELRDAFREFDTNGDGRCSVGELRAALKALLGERLSQREVDEILQDVDLNGDGLVDFEEFVRMMS [I18C] | -0.311 ± 0.11
4 | RELRDAFREFDTNGDGRMSVGELRAALKALLGERLSQREVDEILQDVDLNGDGLVDFEEFVRMMS [I18M] | 0.081 ± 0.065
5 | RELRDAFREFDTNGDGRPSVGELRAALKALLGERLSQREVDEILQDVDLNGDGLVDFEEFVRMMS [I18P] | -1.15 ± 0.22
6 | RELRDAFREFDTNGDGRYSVGELRAALKALLGERLSQREVDEILQDVDLNGDGLVDFEEFVRMMS [I18Y] | -0.592 ± 0.27
7 | RELRDAFREFDTNGDGRHSVGELRAALKALLGERLSQREVDEILQDVDLNGDGLVDFEEFVRMMS [I18H] | -0.917 ± 0.23
8 | RELRDAFREFDTNGDGRTSVGELRAALKALLGERLSQREVDEILQDVDLNGDGLVDFEEFVRMMS [I18T] | -0.763 ± 0.11
9 | RELRDAFREFDTNGDGRRSVGELRAALKALLGERLSQREVDEILQDVDLNGDGLVDFEEFVRMMS [I18R] | -0.808 ± 0.073
10 | RELRDAFREFDTNGDGRDSVGELRAALKALLGERLSQREVDEILQDVDLNGDGLVDFEEFVRMMS [I18D] | -0.965 ± 0.22
11 | RELRDAFREFDTNGDGRKSVGELRAALKALLGERLSQREVDEILQDVDLNGDGLVDFEEFVRMMS [I18K] | -0.691 ± 0.17
12 | RELRDAFREFDTNGDGRFSVGELRAALKALLGERLSQREVDEILQDVDLNGDGLVDFEEFVRMMS [I18F] | -0.747 ± 0.16
13 | RELRDAFREFDTNGDGRLSVGELRAALKALLGERLSQREVDEILQDVDLNGDGLVDFEEFVRMMS [I18L] | 0.114 ± 0.054
14 | RELRDAFREFDTNGDGRESVGELRAALKALLGERLSQREVDEILQDVDLNGDGLVDFEEFVRMMS [I18E] | -1.01 ± 0.17
15 | RELRDAFREFDTNGDGRGSVGELRAALKALLGERLSQREVDEILQDVDLNGDGLVDFEEFVRMMS [I18G] | -0.97 ± 0.12
16 | RELRDAFREFDTNGDGRIMVGELRAALKALLGERLSQREVDEILQDVDLNGDGLVDFEEFVRMMS [S19M] | -0.285 ± 0.39
17 | RELRDAFREFDTNGDGRIQVGELRAALKALLGERLSQREVDEILQDVDLNGDGLVDFEEFVRMMS [S19Q] | -0.584 ± 0.09
18 | RELRDAFREFDTNGDGRIVVGELRAALKALLGERLSQREVDEILQDVDLNGDGLVDFEEFVRMMS [S19V] | -0.517 ± 0.061
19 | RELRDAFREFDTNGDGRIPVGELRAALKALLGERLSQREVDEILQDVDLNGDGLVDFEEFVRMMS [S19P] | -0.43 ± 0.081
20 | RELRDAFREFDTNGDGRIIVGELRAALKALLGERLSQREVDEILQDVDLNGDGLVDFEEFVRMMS [S19I] | -0.462 ± 0.17
21 | RELRDAFREFDTNGDGRIAVGELRAALKALLGERLSQREVDEILQDVDLNGDGLVDFEEFVRMMS [S19A] | -0.372 ± 0.098

Row | Variant | abundance fitness
22 | RELRDAFREFDTNGDGRITVGELRAALKALLGERLSQREVDEILQDVDLNGDGLVDFEEFVRMMS [S19T] | 0.227 ± 0.068
23 | RELRDAFREFDTNGDGRIWVGELRAALKALLGERLSQREVDEILQDVDLNGDGLVDFEEFVRMMS [S19W] | -0.58 ± 0.11
24 | RELRDAFREFDTNGDGRIDVGELRAALKALLGERLSQREVDEILQDVDLNGDGLVDFEEFVRMMS [S19D] | -0.059 ± 0.19
25 | RELRDAFREFDTNGDGRIKVGELRAALKALLGERLSQREVDEILQDVDLNGDGLVDFEEFVRMMS [S19K] | -0.529 ± 0.1
26 | RELRDAFREFDTNGDGRIRVGELRAALKALLGERLSQREVDEILQDVDLNGDGLVDFEEFVRMMS [S19R] | -0.687 ± 0.074
27 | RELRDAFREFDTNGDGRIGVGELRAALKALLGERLSQREVDEILQDVDLNGDGLVDFEEFVRMMS [S19G] | -0.045 ± 0.1
28 | RELRDAFREFDTNGDGRIEVGELRAALKALLGERLSQREVDEILQDVDLNGDGLVDFEEFVRMMS [S19E] | -0.169 ± 0.1
29 | RELRDAFREFDTNGDGRILVGELRAALKALLGERLSQREVDEILQDVDLNGDGLVDFEEFVRMMS [S19L] | -0.532 ± 0.085
30 | RELRDAFREFDTNGDGRIFVGELRAALKALLGERLSQREVDEILQDVDLNGDGLVDFEEFVRMMS [S19F] | -0.462 ± 0.19
31 | RELRDAFREFDTNGDGRIYVGELRAALKALLGERLSQREVDEILQDVDLNGDGLVDFEEFVRMMS [S19Y] | -0.822 ± 0.28
32 | RELRDAFREFDTNGDGRINVGELRAALKALLGERLSQREVDEILQDVDLNGDGLVDFEEFVRMMS [S19N] | 0.049 ± 0.081
33 | RELRDAFREFDTNGDGRIHVGELRAALKALLGERLSQREVDEILQDVDLNGDGLVDFEEFVRMMS [S19H] | -0.459 ± 0.16
34 | RELRDAFREFDTNGDGRISVGALRAALKALLGERLSQREVDEILQDVDLNGDGLVDFEEFVRMMS [E22A] | -0.342 ± 0.066
35 | RELRDAFREFDTNGDGRISVGVLRAALKALLGERLSQREVDEILQDVDLNGDGLVDFEEFVRMMS [E22V] | -0.489 ± 0.074
36 | RELRDAFREFDTNGDGRISVGPLRAALKALLGERLSQREVDEILQDVDLNGDGLVDFEEFVRMMS [E22P] | -1.05 ± 0.16
37 | RELRDAFREFDTNGDGRISVGWLRAALKALLGERLSQREVDEILQDVDLNGDGLVDFEEFVRMMS [E22W] | -0.837 ± 0.11
38 | RELRDAFREFDTNGDGRISVGQLRAALKALLGERLSQREVDEILQDVDLNGDGLVDFEEFVRMMS [E22Q] | -0.357 ± 0.1
39 | RELRDAFREFDTNGDGRISVGMLRAALKALLGERLSQREVDEILQDVDLNGDGLVDFEEFVRMMS [E22M] | -0.535 ± 0.15
40 | RELRDAFREFDTNGDGRISVGNLRAALKALLGERLSQREVDEILQDVDLNGDGLVDFEEFVRMMS [E22N] | -0.726 ± 0.35
41 | RELRDAFREFDTNGDGRISVGGLRAALKALLGERLSQREVDEILQDVDLNGDGLVDFEEFVRMMS [E22G] | 0.093 ± 0.11
